Data taken from patent US20050196380A1, “Method for delivering therapeutic proteins to the intradermal compartment” (priority 2004, published 2005).
“And” between values parts separate entries of the source, which are not always exact repeats. Identical values can stand only once. “Also recorded” adds a separate entry of the source.

What was measured:
[1] = system: female Wistar rats; conditions: rat, in vivo
[2] = system: female Wistar rats; test: Isotype specific (IgG1, IgG2b) antibody response against IFN-β by ELISA; type: in vivo, rat
Experimental: Isotype specific antibody responses against IFN-β were determined at weeks 2 and 24 post-injection using an ELISA Quantification Kit, commercially available from Bethyl Laboratories (Bethyl Inc., Montgomery, Tex.). A 96 well microtiter plate (Nunc Maxi-sorb plate) was coated with 1 μg/mL of IFN antigen and incubated overnight at 4° C. (to generate a standard curve wells were coated with 1 μL of capture antibody to 100 μL coating buffer); plates were washed with 50 mM Tris buffered saline, pH 8.0, 0.05% Tween (Sigma #T9039); 200 μL of Post Coat/Block solution (50 mM Tris buffered saline, pH 8.0, 1% BSA; Sigma #T6789) was added per well and incubated covered for 30 minutes at room temperature. Standards were prepared according to the package insert using the Sample/Conjugate Diluent (0.5 mL of 10% Tween 20; Sigma # P7949) per 100 mL of PostCoat/Block Solution; sample dilutions were made using the Sample/Conjugate Diluent; 100 μL of standard or sample was transferred to assigned wells and incubated for 1 hour at room temperature; conjugate was prepared according to package insert (1:20,000 for IgG1 and 1:40,000 for IgG2b); 100 μL of the conjugate was added per well and incubated for 1 hour at room temperature; 100 μL of TMB per well was added and incubated at room temperature for 30 minutes; 200 μL of 0.5 M H2SO4 per well was added to stop the reaction; plates were read at 450 nm.
(§1) Blood samples were collected once a week.

[3] = system: female Wistar rats; conditions: rat, in vivo; remark: listed apart in the source
Experimental: MATERIALS AND METHODS: Antibody titers were evaluated using an ELISA assay. 100 μL of 1 μg/mL of rat interferon beta (Cell Sciences Inc. (Canton, Mass.)) in coating buffer was added to the wells of a 96 well plate. The plate was incubated at 4° C. overnight. Well contents were removed and the wells were blocked with 5% skim milk in PBST for 2 hours at 37° C. Wells were washed and 100 μL of serum samples were added to the first row of wells. Samples were serially diluted across the plate. The plate was incubated for 1 hour at 37° C. and washed. 100 μL of 1:4000 diluted, anti-rat HRP-conjugated antibody was added to each well and the plate was incubated for 30-60 minutes at 37° C. 100 μL of TMB color developer was added to each well. 200 μL of hydrochloric acid reaction stopper was added to each well. The plate was read at 450 nm. The antibody titer is the dilution giving 3 times absorbance of blank serum.
STUDY DESIGN: A chronic dosing regimen was performed in female Wistar rats using recombinant rat IFN-β (Cell Sciences Inc. (Canton, Mass.)). An injection route comparison was performed evaluating the immunogenicity of IFN-β upon injection intradermally or intramuscularly. IFN-β was injected intradermally using BD's 34 Ga, 1 mm needle and injected intramuscularly using BD 30 Ga×0.5″ to the hamstring muscle. […] Blood samples were collected once a week.

[4] = system: female Wistar rats; test: Histological evaluation of injection site following IM and ID administration of interferon-beta; type: in vivo, rat
Text: Sample Preparation: For ID injection, the skin was removed from each injection site and placed on a small card. The excised skin was approximately lcm in diameter with the needle insertion point in the center. The center of the injection was marked with black tattoo ink at time of injection to help identify the needle insertion point. Samples were placed in individual containers with 10% formalin for fixation. For IM injection, the needle insertion point was marked with black tattoo ink at the time of injection. The skin was carefully lifted and the muscle surface directly below the needle insertion point was marked with black tattoo ink. The hamstring muscle was collected and placed on a small card. Samples were placed in individual containers with 10% formalin for fixation. […]
Sample Identification: Samples are identified by the following system. In animals 801, 803, 804, 806, 807, 808, 809 and 810 intramuscular injections were made to the hamstring muscle of female Wistar rats. In animals 811, 812, 813, 814, 815, 816, 817, 818, 819 and 820 intradermal injections (approximately 1 mm deep) were made to the lateral dorsum of female Wistar rats.
Specimen Preparation: A single section was taken from each sample. Tissue was blocked to a size appropriate for sectioning. The section was taken through the needle insertion track. Sections were H&E stained and evaluated. If evidence of irritation was observed, further sections were taken to determine the extent of the irritation. Samples were graded on a multi-parameter irritancy scale. Histological alterations were graded on the following 5-grade scale: • Grade 0: Normal/Absent/None • Grade 1: Minimal/Cell Degeneration • Grade 2: Mild/Cell Necrosis • Grade 3: Moderate/Focal Erosion • Grade 4: Marked/Massive/Generalized Erosion • Present: Finding present/Severity not scored
In addition to the grading scale, descriptions of changes and findings were documented. Measurements were taken of the Width and Depth of any site irritation as well as skin thickness. Representative photos were taken of each condition.
Study Design: Rat interferon beta (Cell Sciences Inc. (Canton, Mass.)) was administered IM or ID in phosphate buffered saline using methods described supra. The animals were divided according to the following scheme:
Intramuscular Group—Day 1: The hair on the back and on the back of the rear leg was clipped. Injection was performed using a BD 30 G×0.5″ needle to the hamstring muscle. 50 μL was injected. The center of the injection was marked with black tattoo ink to help aid in injection track identification. Rats were returned to their cages for recovery.
Intramuscular Group—Day 2 (24 hrs. post-injection): Rats were euthanized by CO2 asphxiation and the skin from rear leg was removed. The muscle directly below the needle insertion point on the skin was marked with black tattoo ink. The hamstring muscle was excised, placed on small card and stored in 10% formalin solution.
Intradermal group-Day 1 The hair on the lateral dorsum was closely clipped. and injection was performed using a 1 mm BD microneedle. 50 μL was injected The center of the injection was marked with black tattoo ink to help aid needle track identification. Rats were returned to their cages for recovery.
[…] A 1 cm diameter margin of skin (full-thickness) around the injection site was excised. Skin was placed on a small card and stored in 10% formalin solution.

[5] = system: female Wistar rats; test: Visual observation of injection site irritation; type: in vivo, rat; conditions: ID administration, 3 times/wk for 24 weeks
Text: as §1
FIGS. 16A-B show injection site photos of IFN-β to female Wistar rats. Panel A is an intramuscular injection. The back of a rat's leg is shown. The injection was made into the hamstring muscle. Panel B is an intradermal injection on the rat's back. The “bleb” is circled. No irritation is evident in either photo. These photos were taken immediately post-injection.

[6] = ID injection, individual animals, marked grade

B1: IFN-β: recombinant rat IFN-β (Cell Sciences Inc., Canton, Mass.) (protein, UniProt P70499 22-184, looked up)
Interferon beta: IDYKQLQFRQSTSIRTCQKLLRQLNGRLNLSYRTDFKIPMEVMHPSQMEKSYTAFAIQVMLQNVFLVFRSNFSSTGWNETIVESLLDELHQQTELLEIILKEKQEERLTWVTSTTTLGLKSYYWRVQRYLKDKKYNSYAWMVVRAEVFRNFSIILRLNRNFQN
- mean IFN-β specific NAbs titers, IM vs ID [1]: not significantly different
- IFN-β specific IgG1 antibody, ID vs IM ([2]; week 2): only one animal showed any detectable IgG1 antibody; also recorded: higher
- IFN-β specific IgG2b antibody ([2]; week 2, IM or ID): no IgG2b was detectable
- mean IFN-β specific IgG2b concentration, ID vs IM ([2]; week 24): not significantly different; also recorded: comparable
- animals with increase in titer from week 12 [3]: one
- animals with marked increase in titer from week 12 [3]: Three
- antibody response, ID vs IM [3]: slightly stronger
- antibody response, IM vs ID [3]: slightly higher
- antibody titers by ELISA, IM vs ID [3]: not significantly different
- mean antibody response, IM vs ID [3]: higher mean antibody response
- mean antibody titers by ELISA, IM vs ID (two sample t-test) [3]: not significantly different
- cellular reaction, in general ([4]; 2 weeks): minimal
- infiltration of injection sites with lymphocytes and neutrophils ([4]; 2 weeks, intradermal sites): minimally infiltrated
- inflammatory cell infiltrates of injection sites, compared with intradermal sites ([4]; 2 weeks, intramuscular sites): more prominent
- cellular reaction (inflammation) ([4]; 24 weeks, ID injection): minimal to moderate
- Irritation Index ([4]; ID injection, individual animals 811-820, 24 hours post-injection): 3 and 2
- Dermis, leukocyte infiltration (per 40× field) [4, 6]: Moderate - 51-100 (Moderate - 51-100)
- Edema grade [4, 6]: Absent
- Epidermis reaction grade [4, 6]: Normal, intact
- Vascular Congestion grade [4, 6]: Absent
- overall irritation index designation / histopathological classification of irritation ([4]; ID sites): minimal
- acute or chronic injection site irritation (external, visual) [5]: No external acute or chronic injection site irritation
